Source: article PMC5963807, “Assembly-hub function of ER-localized SNARE proteins in biogenesis of tombusvirus replication compartment” (PLoS Pathogens, 2018)

T1: FLAG/His6-p33 (Tomato bushy stunt virus, UniProt P15962 1-296)
T1 construct: p33 replication protein of Tomato bushy stunt virus (TBSV); also called FLAG-p33; FLAG-tagged p33; source: yeast, co-expressed, detergent-solubilized membrane fraction; not shown: FLAG, N-terminal, kept; His6, N-terminal, kept
T1 sequence: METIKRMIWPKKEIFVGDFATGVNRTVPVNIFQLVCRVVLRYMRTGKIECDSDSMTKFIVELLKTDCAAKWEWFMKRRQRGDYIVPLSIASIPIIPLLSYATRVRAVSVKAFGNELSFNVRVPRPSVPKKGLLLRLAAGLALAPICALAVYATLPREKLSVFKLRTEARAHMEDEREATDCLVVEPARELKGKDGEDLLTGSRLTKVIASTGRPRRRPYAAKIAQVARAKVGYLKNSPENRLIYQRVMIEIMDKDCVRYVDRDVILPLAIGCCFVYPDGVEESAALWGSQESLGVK

B1: His6-Osh6p (natural protein, yeast (S. cerevisiae), UniProt Q02201 1-448, looked up)
chain: MGSKKLTVGSDSHRLSKSSFSSNKSSHSATKDQPIDTDDIDEDDESGHNIILNIISQLRPGCDLTRITLPTFILEKKSMLERVTNQLQFPEFLLQAHSEKDPLKRFLYVMKWYLAGWHIAPKAVKKPLNPVLGEYFTAYWDLPNKQQAYYISEQTSHHPPECAYFYMIPESSIRVDGVVIPKSRFLGNSSAAMMDGSTVLQFLDIKDGNGKPEKYVLTQPNVYVRGILFGKMRIELGDHMIIKSPNFQADIEFKTKGYVFGTYDAIEGTVKDYDGNAYYEISGKWNDVMYLKDLKQPRSSPKVFLDTHKESPLRPKVRPLSEQGEYESRKLWKKVTDALAVRNHPVATEEKFQIEDHQRQLAKKRIEDGVEFHPKLFRRSKPGEDLDYCIYKNIPVDEDPEKQIRSILQIAPILPGQQFTDKFFIPAFEKIKSQKKMIENEKQNPAKQ
notes: also called 6xHis-tagged Osh6; Osh6 ORP (OSBP1-like); source: yeast, co-expressed, detergent-solubilized membrane fraction; not shown: His6, N-terminal, kept
B2: Tef1 eEF1A translation elongation factor (natural protein, yeast (S. cerevisiae), UniProt P02994 1-458, looked up)
chain: MGKEKSHINVVVIGHVDSGKSTTTGHLIYKCGGIDKRTIEKFEKEAAELGKGSFKYAWVLDKLKAERERGITIDIALWKFETPKYQVTVIDAPGHRDFIKNMITGTSQADCAILIIAGGVGEFEAGISKDGQTREHALLAFTLGVRQLIVAVNKMDSVKWDESRFQEIVKETSNFIKKVGYNPKTVPFVPISGWNGDNMIEATTNAPWYKGWEKETKAGVVKGKTLLEAIDAIEQPSRPTDKPLRLPLQDVYKIGGIGTVPVGRVETGVIKPGMVVTFAPAGVTTEVKSVEMHHEQLEQGVPGDNVGFNVKNVSVKEIRRGNVCGDAKNDPPKGCASFNATVIVLNHPGQISAGYSPVLDCHTAHIACRFDELLEKNDRRSGKKLEDHPKFLKSGDAALVKFVPSKPMCVEAFSEYPPLGRFAVRDMRQTVAVGVIKSVDKTEKAAKVTKAAQKAAKK
notes: Tef1 eEF1A translation elongation factor of yeast; source: yeast, detergent-solubilized membrane fraction
B3: Pbp2 RNA binding protein (natural protein, UniProt P38151 1-413, looked up)
chain: MSTETTKPSITTTPTTVLVSPNTLKRKKGEDTSEEQLEAEIKRVALKDADSHSDNDHDSPDNVPSDVHLRMLCLVKHASLIVGHKGATISRIKSETSARINISNNIRGVPERIVYVRGTCDDVAKAYGMIVRALLEEHGNEDNGEDIEISINLLIPHHLMGCIIGKRGSRLREIEDLSAAKLFASPNQLLLSNDRILTINGVPDAIHIATFYISQTLLNFQMESPQKNVKRSIYYQPTQFNSVLIDHSQPNTIFHQRNHQYHPSDKLLSYKPNKNLPISSTLLSMATPQYTTASVANATAFQPNFVIPNVTVLDGPVISPAPGNHLLMNFVQQEIFIDEKFVGNVIGKDGKHINSVKESTGCSIIIQDPVEGSSERRLTIRGTFMASQAAIMLISNKIEIDRSNAERKRRSPL
notes: source: yeast, detergent-solubilized membrane fraction
B4: Rpn11 deubiquitinase (enzyme, yeast (S. cerevisiae), UniProt P43588 1-306, looked up)
chain: MERLQRLMMNSKVGSADTGRDDTKETVYISSIALLKMLKHGRAGVPMEVMGLMLGEFVDDYTVNVVDVFAMPQSGTGVSVEAVDDVFQAKMMDMLKQTGRDQMVVGWYHSHPGFGCWLSSVDVNTQKSFEQLNSRAVAVVVDPIQSVKGKVVIDAFRLIDTGALINNLEPRQTTSNTGLLNKANIQALIHGLNRHYYSLNIDYHKTAKETKMLMNLHKEQWQSGLKMYDYEEKEESNLAATKSMVKIAEQYSKRIEEEKELTEEELKTRYVGRQDPKKHLSETADETLENNIVSVLTAGVNSVAIK
notes: Rpn11 deubiquitinase, co-opted cellular host factor in yeast; source: yeast, detergent-solubilized membrane fraction
B5: Tdh2p (GAPDH) (enzyme, yeast (S. cerevisiae), UniProt P00358 1-332, looked up)
chain: MVRVAINGFGRIGRLVMRIALQRKNVEVVALNDPFISNDYSAYMFKYDSTHGRYAGEVSHDDKHIIVDGHKIATFQERDPANLPWASLNIDIAIDSTGVFKELDTAQKHIDAGAKKVVITAPSSTAPMFVMGVNEEKYTSDLKIVSNASCTTNCLAPLAKVINDAFGIEEGLMTTVHSMTATQKTVDGPSHKDWRGGRTASGNIIPSSTGAAKAVGKVLPELQGKLTGMAFRVPTVDVSVVDLTVKLNKETTYDEIKKVVKAAAEGKLKGVLGYTEDAVVSSDFLGDSNSSIFDAAAGIQLSPKFVKLVSWYDNEYGYSTRVVDLVEHVAKA
notes: Tdh2p glyceraldehyde-3-phosphate dehydrogenase of yeast; also called Tdh2 GAPDH; source: yeast, detergent-solubilized membrane fraction
B6: eIF4AIII-like RH2 DEAD-box helicase (enzyme, UniProt Q94A52 1-408, looked up)
chain: MATANPGRGGGRRGGGAMDDDKLVFETTDGIEPITSFNDMGIKEDVLRGVYEYGFEKPSAIQQRAVMPILQGRDVIAQAQSGTGKTSMIALSVCQVVDTSSREVQALILSPTRELATQTEKTIQAIGLHANIQAHACIGGNSVGEDIRKLEHGVHVVSGTPGRVCDMIKRRSLRTRAIKLLILDESDEMLSRGFKDQIYDVYRYLPPDLQVCLVSATLPHEILEMTSKFMTEPVKILVKRDELTLEGIKQFFVAVEKEEWKFDTLCDLYDTLTITQAVIFCNTKRKVDYLSEKMRSHNFTVSSMHGDMPQKERDAIMNEFRSGDSRVLITTDVWARGIDVQQVSLVINYDLPNNRELYIHRIGRSGRFGRKGVAINFVKSDDIKILRDIEQYYSTQIDEMPMNVADLI
notes: eIF4AIII-like RH2 DEAD-box helicase; source: yeast, detergent-solubilized membrane fraction
B7: Cdc34 E2 enzyme (enzyme, yeast (S. cerevisiae), UniProt P14682 1-295, looked up)
chain: MSSRKSTASSLLLRQYRELTDPKKAIPSFHIELEDDSNIFTWNIGVMVLNEDSIYHGGFFKAQMRFPEDFPFSPPQFRFTPAIYHPNVYRDGRLCISILHQSGDPMTDEPDAETWSPVQTVESVLISIVSLLEDPNINSPANVDAAVDYRKNPEQYKQRVKMEVERSKQDIPKGFIMPTSESAYISQSKLDEPESNKDMADNFWYDSDLDDDENGSVILQDDDYDDGNNHIPFEDDDVYNYNDNDDDDERIEFEDDDDDDDDSIDNDSVMDRKQPHKAEDESEDVEDVERVSKKI
notes: Cdc34 ubiquitin-conjugating enzyme of yeast; also called Cdc34 ubiquitin-conjugating enzyme; source: yeast, detergent-solubilized membrane fraction
B8: Vps4p AAA+ ATPase (enzyme, yeast (S. cerevisiae), UniProt P52917 1-437, looked up)
chain: MSTGDFLTKGIELVQKAIDLDTATQYEEAYTAYYNGLDYLMLALKYEKNPKSKDLIRAKFTEYLNRAEQLKKHLESEEANAAKKSPSAGSGSNGGNKKISQEEGEDNGGEDNKKLRGALSSAILSEKPNVKWEDVAGLEGAKEALKEAVILPVKFPHLFKGNRKPTSGILLYGPPGTGKSYLAKAVATEANSTFFSVSSSDLVSKWMGESEKLVKQLFAMARENKPSIIFIDEVDALTGTRGEGESEASRRIKTELLVQMNGVGNDSQGVLVLGATNIPWQLDSAIRRRFERRIYIPLPDLAARTTMFEINVGDTPCVLTKEDYRTLGAMTEGYSGSDIAVVVKDALMQPIRKIQSATHFKDVSTEDDETRKLTPCSPGDDGAIEMSWTDIEADELKEPDLTIKDFLKAIKSTRPTVNEDDLLKQEQFTRDFGQEGN
notes: Vps4p AAA+ ATPase (an ESCRT protein) of yeast; also called Vps4 AAA ATPase; source: yeast, detergent-solubilized membrane fraction
B9: His6-VAP27-1 (natural protein, UniProt Q8VZ95 1-256, looked up)
chain: MSNIDLIGMSNRDLIGMSNSELLTVEPLDLQFPFELKKQISCSLYLTNKTDNNVAFKVKTTNPKKYCVRPNTGVVLPRSTCEVLVTMQAQKEAPSDMQCKDKFLLQGVIASPGVTAKEVTPEMFSKEAGHRVEETKLRVTYVAPPRPPSPVHEGSEEGSSPRASVSDNGHGSEFSFERFIVDNKAGHQENTSEARALITKLTEEKQSAIQLNNRLQRELDQLRRESKKSQSGGIPFMYVLLVGLIGLILGYIMKRT
notes: VAP27-1, plant ortholog of the yeast Scs2 VAP protein; also called 6xHis-tagged VAP27-1 (Scs2 ortholog); Vap27-1 (Scs2-like); source: yeast, co-expressed, detergent-solubilized membrane fraction; not shown: His6, N-terminal, kept
B10: Pex19p shuttle protein (natural protein, yeast (S. cerevisiae), UniProt Q07418 1-342, looked up)
chain: MNENEYDNFDDLDDLLDEDPTKLDEAEPDDVQAKGSVYNDSENKEKNAESKDSDGVQVANESEEDPELKEMMVDLQNEFANLMKNNGNENNVKTEDFNKLISALEEAAKVPHQQMEQGCSSLKSNSTDKGTVNGSNPGFKNIVSNTLDRLKENGNKVDTSLAEETKESQRSGQNNNIDDILSQLLDQMVASGGKESAENQFDLKDGEMDDAITKILDQMTSKEVLYEPMKEMRSEFGVWFQENGENEEHKEKIGTYKRQFNIVDEIVNIYELKDYDELKHKDRVTELLDELEQLGDSPIRSANSPLKHGNEEEELMKMLEIDGNDPNLGNLDKELTDGCKQQ
notes: Pex19p peroxisome membrane-biogenesis protein of yeast; source: yeast, detergent-solubilized membrane fraction
B11: Vps23p ESCRT factor (natural protein, yeast (S. cerevisiae), UniProt P25604 1-385, looked up)
chain: MSANGKISVPEAVVNWLFKVIQPIYNDGRTTFHDSLALLDNFHSLRPRTRVFTHSDGTPQLLLSIYGTISTGEDGSSPHSIPVIMWVPSMYPVKPPFISINLENFDMNTISSSLPIQEYIDSNGWIALPILHCWDPAAMNLIMVVQELMSLLHEPPQDQAPSLPPKPNTQLQQEQNTPPLPPKPKSPHLKPPLPPPPPPQPASNALDLMDMDNTDISPTNHHEMLQNLQTVVNELYREDVDYVADKILTRQTVMQESIARFHEIIAIDKNHLRAVEQAIEQTMHSLNAQIDVLTANRAKVQQFSSTSHVDDEDVNSIAVAKTDGLNQLYNLVAQDYALTDTIECLSRMLHRGTIPLDTFVKQGRELARQQFLVRWHIQRITSPLS
notes: Vps23p ESCRT-I factor of yeast; also called Vps23 ESCRT I; source: yeast, detergent-solubilized membrane fraction

The binders below were run against T1, FLAG/His6-p33 (assay: co-IP; FLAG-p33 purified from detergent-solubilized membrane fractions of wt yeast and of yeast co-expressing Ufe1ΔTM; co-purified cellular proteins measured by Western blotting; amount from WT yeast taken as 100%). Conditions: partners not purified.
In the case of B1, the “fold reduction of the co-purified amount in yeast expressing Ufe1ΔTM against wt yeast” value is reported as roughly 3 fold.

Target: T1, FLAG/His6-p33
Test: as above
Conditions: partners not purified
Remark: another data set of the same source
With B2 the “percentage of host protein co-purified with p33 from yeast expressing Ufe1ΔTM (WT yeast = 100%)” value was 67 ± 25%.
For B3, the “percentage of host protein co-purified with p33 from yeast expressing Ufe1ΔTM (WT yeast = 100%)” value was 122 ± 15%.
With B4 the “percentage of host protein co-purified with p33 from yeast expressing Ufe1ΔTM (WT yeast = 100%)” value was 103 ± 6%.
In the case of B5, the “percentage of host protein co-purified with p33 from yeast expressing Ufe1ΔTM (WT yeast = 100%)” value is reported as 64 ± 17%.
B6 was tested, and the “percentage of host protein co-purified with p33 from yeast expressing Ufe1ΔTM (WT yeast = 100%)” value was 70 ± 18%.
In the case of B7, the “percentage of host protein co-purified with p33 from yeast expressing Ufe1ΔTM (WT yeast = 100%)” value is reported as 109 ± 14%.
B1 was tested, and the “percentage of host protein co-purified with p33 from yeast expressing Ufe1ΔTM (WT yeast = 100%)” value was 59 ± 24%.
B8 was tested, and the “percentage of host protein co-purified with p33 from yeast expressing Ufe1ΔTM (WT yeast = 100%)” value was 44 ± 27%.
B9 was tested, and the “percentage of host protein co-purified with p33 from yeast expressing Ufe1ΔTM (WT yeast = 100%)” value was 68 ± 30%.
B10 was tested, and the “percentage of host protein co-purified with p33 from yeast expressing Ufe1ΔTM (WT yeast = 100%)” value was 56 ± 13%.
For B11, the “percentage of host protein co-purified with p33 from yeast expressing Ufe1ΔTM (WT yeast = 100%)” value was 106 ± 7%.

These binders were tested against T1, FLAG/His6-p33 (assay: co-IP; viral replicase purified by FLAG affinity from detergent-solubilized membrane fractions of yeasts expressing FLAG-p33, FLAG-p92 and the repRNA; WT yeast or yeast depleted of Ufe1p (GALS::UFE1) or Use1p (GAL1::USE1) on glucose; Western blot with anti-6xHis). Conditions: partners not purified.
With B1 the “fold reduction of the co-purified amount in Ufe1p- or Use1p-depleted yeast against WT yeast” value was roughly 7 fold.
In the case of B9, the “fold reduction of the co-purified amount in Ufe1p- or Use1p-depleted yeast against WT yeast” value is reported as roughly 5 fold.
